The values that follow come from paper PMC9889268.

In the assay the target is wild-type ClbP (Escherichia coli CFT073) (UniProt Q0P7K6). The experiment in a line: cryo-EM structure; single-particle cryo-EM of detergent-solubilised ClbP; 10 mM HEPES pH 7.3, 200 mM NaCl, 0.06% GDN; 3.5 mg/ml; C2 symmetry imposed.

With “wild-type ClbP (from UniProt Q0P7K6 1-504) (enzyme)”, the stoichiometry N is 2.
